According to US20250304666A1 (ALCHEMAB THERAPEUTICS, published 2025):

B1: ATL4717 (antibody, human IgG1, kappa, V domains shown)
VH: QVQLVESGGGMVQPGRSLRLSCAASGFTFSIYGMHWVRQAPGRGLEWVAVMSFDGKTKYYADSVKGRFTISRDNSKNTLYLQMNSLRRVDTAVYYCAKGGATAAVFDSWGQGTLVTVSS
VL: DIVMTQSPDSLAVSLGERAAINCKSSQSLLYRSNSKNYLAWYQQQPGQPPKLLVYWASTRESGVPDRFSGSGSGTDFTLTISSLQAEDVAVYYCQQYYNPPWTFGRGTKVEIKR
notes: Human IgG1; also called ATL0004717; ATL04717
B2: ATL5170 (antibody, human IgG1, kappa, V domains shown)
VH: QVQLVESGGGVVQPGRSLRLSCAASGFTFSNYGMHWVRQAPGKGLEWVAVTSFDGKTKYYADSVKGRFTISRDNSKNTLYLQMNSLRAEDTAVYYCAKGGATAAVLDSWGQGTLVTVSS
VL: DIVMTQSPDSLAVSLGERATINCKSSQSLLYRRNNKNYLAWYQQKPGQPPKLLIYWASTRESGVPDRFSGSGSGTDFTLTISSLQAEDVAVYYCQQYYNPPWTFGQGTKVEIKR
notes: IgG1; also called ATL_0005170

What was measured:
[1] = target: T1, non-reduced CFH; experiment: ELISA, non-reduced antigen
T1 construct: also called CFH (NON-REDUCED)
T1 chain: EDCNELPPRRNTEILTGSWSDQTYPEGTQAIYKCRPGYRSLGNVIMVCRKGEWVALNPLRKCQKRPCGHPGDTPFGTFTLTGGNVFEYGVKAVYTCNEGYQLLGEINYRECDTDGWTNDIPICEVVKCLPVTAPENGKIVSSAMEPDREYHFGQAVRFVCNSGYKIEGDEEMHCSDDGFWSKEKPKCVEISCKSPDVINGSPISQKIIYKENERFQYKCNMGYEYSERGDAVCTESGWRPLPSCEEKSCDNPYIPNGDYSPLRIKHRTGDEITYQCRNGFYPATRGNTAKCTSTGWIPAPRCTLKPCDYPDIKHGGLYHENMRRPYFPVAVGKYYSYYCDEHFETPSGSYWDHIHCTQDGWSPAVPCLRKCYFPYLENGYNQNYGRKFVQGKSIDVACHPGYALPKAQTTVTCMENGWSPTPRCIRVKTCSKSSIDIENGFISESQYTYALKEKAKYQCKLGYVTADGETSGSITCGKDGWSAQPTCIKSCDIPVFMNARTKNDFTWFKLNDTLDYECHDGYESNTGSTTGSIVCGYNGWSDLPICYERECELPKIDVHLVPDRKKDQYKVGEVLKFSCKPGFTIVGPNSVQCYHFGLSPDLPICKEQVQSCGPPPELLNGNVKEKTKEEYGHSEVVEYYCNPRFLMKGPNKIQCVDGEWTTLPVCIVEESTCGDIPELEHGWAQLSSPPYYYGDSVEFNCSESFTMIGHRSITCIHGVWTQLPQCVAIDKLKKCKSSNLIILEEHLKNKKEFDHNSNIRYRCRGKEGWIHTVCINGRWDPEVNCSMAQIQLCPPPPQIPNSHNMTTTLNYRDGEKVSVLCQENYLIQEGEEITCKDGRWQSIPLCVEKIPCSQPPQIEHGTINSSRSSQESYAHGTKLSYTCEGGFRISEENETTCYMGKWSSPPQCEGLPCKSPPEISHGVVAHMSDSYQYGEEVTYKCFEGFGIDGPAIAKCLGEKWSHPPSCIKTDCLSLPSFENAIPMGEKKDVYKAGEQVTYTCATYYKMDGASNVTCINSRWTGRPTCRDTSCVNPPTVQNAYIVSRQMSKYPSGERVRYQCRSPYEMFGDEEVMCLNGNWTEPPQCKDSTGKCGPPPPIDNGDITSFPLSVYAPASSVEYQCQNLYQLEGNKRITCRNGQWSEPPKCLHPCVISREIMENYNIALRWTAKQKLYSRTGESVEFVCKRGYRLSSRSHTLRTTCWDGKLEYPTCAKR

[2] = target: T2, non-reduced CFHR2; experiment: ELISA, non-reduced antigen
T2 construct: also called CFHR2 (NON-REDUCED)
T2 chain: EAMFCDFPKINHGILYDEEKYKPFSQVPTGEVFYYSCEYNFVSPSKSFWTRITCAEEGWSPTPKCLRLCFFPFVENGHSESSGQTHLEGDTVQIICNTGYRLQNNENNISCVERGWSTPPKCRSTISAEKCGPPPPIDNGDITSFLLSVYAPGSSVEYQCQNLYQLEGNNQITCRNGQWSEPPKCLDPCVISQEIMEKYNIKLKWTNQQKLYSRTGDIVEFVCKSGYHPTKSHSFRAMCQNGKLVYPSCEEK

[3] = target: T3, immobilised biotinylated full-length CFH (reduced) (Homo sapiens (Human), UniProt P08603 19-1231, biotinylated; reduced with 20 mM dithiothreitol); experiment: BLI, biotinylated reduced full-length CFH on streptavidin tips, 1:1 global fit
T3 construct: Purified endogenous full-length CFH immobilised by biotin on streptavidin BLI sensors; also called immobilised CFH; surface immobilised CFH
Method: Biolayer interferometry (BLI, Octet 96Red) was used to measure binding kinetics of the interactions between anti-CFH antibodies and CFH. The CFH used for kinetics measurements was purified endogenous CFH was biotinylated and reduced with 20 mM dithiothreitol (DTT). An irrelevant protein was treated in the same way as a negative control reference. The CFH or irrelevant control ligands were each immobilised via the conjugated biotin onto a set of streptavidin (SA) sensor tips. Sensors were dipped into reference kinetics buffer (Phosphate buffered saline (PBS), pH 7.4, 0.05% Tween-20, 2% w/v not fat milk powder) to achieve a steady baseline. Association was measured over 300 s by dipping the sensors into an analyte concentration series of anti-CFH antibody (33.3-2.08 nM in kinetics buffer) as well as a no analyte control (kinetics buffer only). Dissociation was measured over 1500 s by dipping the sensors into kinetics buffer only. Baseline, association and dissociation steps were all measured with sensors shaking at 800 rpm and at a temperature of 23° C. Data was analysed with Data Analysis HT 11.1.0.25 software. Data from reference sensors and analyte control were subtracted. Data was corrected by aligning y-axis to average of baseline 5 s before association, inter step correction aligned to start of baseline and using Savitzky-Golay filtering. Data was fit to a 1:1 model using association and dissociation phases and kinetic rate constants are reported for the global fit where each curve R2 is >0.9.

[4] = target: T4, reduced CFHR5 (UniProt Q9BXR6 19-569, limits assumed); experiment: ELISA on reduced CFHR5
T4 sequence (looked up): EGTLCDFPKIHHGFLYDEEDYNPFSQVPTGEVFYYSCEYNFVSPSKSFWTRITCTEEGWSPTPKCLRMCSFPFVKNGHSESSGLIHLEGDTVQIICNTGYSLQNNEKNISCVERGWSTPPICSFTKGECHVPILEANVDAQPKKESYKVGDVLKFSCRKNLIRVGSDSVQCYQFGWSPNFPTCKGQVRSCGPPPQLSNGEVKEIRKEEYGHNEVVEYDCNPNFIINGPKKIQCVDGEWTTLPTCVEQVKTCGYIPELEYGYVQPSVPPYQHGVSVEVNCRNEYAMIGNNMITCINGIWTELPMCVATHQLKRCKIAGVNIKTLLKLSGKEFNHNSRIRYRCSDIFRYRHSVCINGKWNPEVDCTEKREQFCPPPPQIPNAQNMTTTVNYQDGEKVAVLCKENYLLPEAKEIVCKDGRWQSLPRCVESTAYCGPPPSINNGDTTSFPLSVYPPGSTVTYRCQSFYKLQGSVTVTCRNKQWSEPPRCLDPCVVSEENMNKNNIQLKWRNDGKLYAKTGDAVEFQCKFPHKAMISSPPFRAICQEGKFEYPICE

Row | Binder | fold change vs isotype at 1 ug/ml [1] [fold] | fold change vs isotype at 1 ug/ml [2] [fold] | Kd [3] [nM] | koff [3] [s⁻¹] | kon [3] [M⁻¹ s⁻¹] | binding result [4]
1 | B1 | 7.3 | 4.3 | – | – | – | –
2 | B2 | 10 | 1.3 | 0.85 | 0.000348 | 409000 | no binding (tested: 100 ug/ml)
